Data on 4 substances can be found in publication PMC6021111, “Murine leukemia virus p12 tethers the capsid-containing pre-integration complex to chromatin by binding directly to host nucleosomes in mitosis” (PLoS Pathogens, 2018).

For data set [1], the target named is partner chain of the complex shown [chain 1 S65A R66A L67A R68A G69A]. The experiment in a line: SILAC-MS of GST pull-down. The following applies: mitotic 293T cell lysates.
In data set [2] the target is C-terminally His-tagged N-MLV CA WT (N-tropic murine leukaemia virus (N-MLV)). The experiment in a line: co-sedimentation.
The target in data set [3] is GST-tagged FeLV p12 A53V (feline leukaemia virus (FeLV)). Kind of data set: pull-down.
The target of data set [4] is GST-tagged FeLV p12 I52M (feline leukaemia virus (FeLV)). Kind of data set: pull-down.
Data set [5] addresses GST-tagged Mo-MLV p12_M63I (Moloney murine leukaemia virus (Mo-MLV)). Kind of data set: pull-down.
In data set [6] the target is GST-tagged Mo-MLV p12_M63I with S61A (Moloney murine leukaemia virus (Mo-MLV)). Kind of data set: pull-down.
The target of data set [7] is GST-tagged Mo-MLV p12_M63I with S61D (Moloney murine leukaemia virus (Mo-MLV)). Kind of data set: pull-down.
For data set [8], the target named is GST-tagged Mo-MLV p12_M63I with S61E (Moloney murine leukaemia virus (Mo-MLV)). The experiment in a line: pull-down.
Data set [9] relates to hCBS soluble competitor peptide (prototypic foamy virus (PFV)). Kind of data set: competition. The following applies: scale: fold decrease of nucleosome binding to immobilised hCBS.

Chain of N-MLV p12_WT (purified, untagged) (natural protein) (P03336 130-214 limits assumed): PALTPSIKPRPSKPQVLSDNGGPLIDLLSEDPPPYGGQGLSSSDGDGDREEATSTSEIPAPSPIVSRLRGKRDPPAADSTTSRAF
Chain of C-terminally His-tagged N-MLV CA WT (N-tropic murine leukaemia virus (N-MLV)) (P03336 215-477 limits assumed): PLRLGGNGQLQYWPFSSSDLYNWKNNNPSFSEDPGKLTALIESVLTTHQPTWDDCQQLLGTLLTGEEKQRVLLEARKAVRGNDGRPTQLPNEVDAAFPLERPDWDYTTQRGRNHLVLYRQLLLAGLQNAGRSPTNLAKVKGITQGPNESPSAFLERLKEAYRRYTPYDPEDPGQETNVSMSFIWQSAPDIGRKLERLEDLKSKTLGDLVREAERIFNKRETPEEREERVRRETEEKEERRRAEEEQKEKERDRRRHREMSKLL

For the substance , the screen value (SDs from the mean) in data set [1] (replicate R1) amounted to 1.1; in data set [1] (replicate R2) it was 2.1.

In the case of “N-MLV p12_WT (purified, untagged) (natural protein)”, in data set [2], the amount of p12 pelleted by the CA-nanotubes (67 pmol CA loaded) came to 11.2 pmol and the stoichiometry N (p12 per CA (1:6)) was 0.167.

“histone H2B (from UniProt P62807 1-126) (natural protein)”: the fold difference in histone precipitation against the WT FeLV p12 in [3] and in data set [4] was under 2 fold in each case. In data set [5], this substance displayed a fold more histones pulled down from mitotic than from interphase cell lysates of 4 fold. In data set [5], this substance yielded a fold reduction of H2B precipitation after kenpaullone of 3.5 fold. The fold reduction of H2B precipitation after roscovitine in data set [5] is 1.5 fold. Moreover, the fold reduction in histone pull down against GST-p12 M63I in [6] was 3 fold; in data set [7] it was 6 fold; in data set [8], 1.5 fold.

As for recombinant H3.3 poly-nucleosomes, the binding signal in data set [9] amounted to 10.
